{
  "source": "paper PMC6980855",
  "key": {"[1]": {"target": "Alexa647-labeled Bax (single cysteine mutant 126C) (human (H. sapiens)) (UniProt Q07812)", "sequence (Q07812 other isoform, or with tags, fused parts or gaps mutant)": "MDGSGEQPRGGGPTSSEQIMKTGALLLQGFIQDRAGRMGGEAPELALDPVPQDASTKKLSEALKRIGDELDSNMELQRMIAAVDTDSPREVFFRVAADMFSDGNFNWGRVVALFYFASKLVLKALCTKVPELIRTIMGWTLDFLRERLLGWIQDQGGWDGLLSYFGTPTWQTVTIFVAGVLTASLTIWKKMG"}, "[2]": {"target": "Alexa568-labeled BimL-I125E (mouse (M. musculus))", "experiment": "FRET or BRET; in solution, no membranes; 20 nM Alexa568-labeled BimL protein (donor) with increasing Alexa647-labeled Bcl-XL (acceptor); fit: one site, specific binding with Hill slope (BimL-dCTS: another model with a constant fixed at 4)"}, "[3]": {"target": "Alexa568-labeled BimL-CTS2A (mouse (M. musculus))", "experiment": "FRET or BRET; in solution, no membranes; 20 nM Alexa568-labeled BimL protein (donor) with increasing Alexa647-labeled Bcl-XL (acceptor); fit: one site, specific binding with Hill slope (BimL-dCTS: another model with a constant fixed at 4)"}, "[4]": {"target": "Alexa568-labeled BimL-dCTS (mouse (M. musculus))", "experiment": "FRET or BRET; in solution, no membranes; 20 nM Alexa568-labeled BimL protein (donor) with increasing Alexa647-labeled Bcl-XL (acceptor); fit: one site, specific binding with Hill slope (BimL-dCTS: another model with a constant fixed at 4)"}, "[5]": {"target": "Alexa568-labeled BimL-L129E (mouse (M. musculus))", "experiment": "FRET or BRET; in solution, no membranes; 20 nM Alexa568-labeled BimL protein (donor) with increasing Alexa647-labeled Bcl-XL (acceptor); fit: one site, specific binding with Hill slope (BimL-dCTS: another model with a constant fixed at 4)"}, "[6]": {"target": "Alexa568-labeled BimL-V124E (mouse (M. musculus))", "experiment": "FRET or BRET; in solution, no membranes; 20 nM Alexa568-labeled BimL protein (donor) with increasing Alexa647-labeled Bcl-XL (acceptor); fit: one site, specific binding with Hill slope (BimL-dCTS: another model with a constant fixed at 4)"}, "[7]": {"target": "Alexa568-labeled BimL (single-cysteine mutant BimL Q41C) (mouse (M. musculus))", "experiment": "FRET or BRET; in solution, no membranes; 20 nM Alexa568-labeled BimL protein (donor) with increasing Alexa647-labeled Bcl-XL (acceptor); fit: one site, specific binding with Hill slope (BimL-dCTS: another model with a constant fixed at 4)"}, "[8]": {"target": "Alexa568-labeled BimL-4E (mouse (M. musculus))", "sequence (main, as listed by the source)": "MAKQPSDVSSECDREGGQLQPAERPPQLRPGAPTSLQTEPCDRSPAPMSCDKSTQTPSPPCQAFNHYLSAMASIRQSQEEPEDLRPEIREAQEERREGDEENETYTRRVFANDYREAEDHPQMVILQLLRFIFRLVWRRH", "experiment": "FRET or BRET; in solution, no membranes; 20 nM Alexa568-labeled BimL protein (donor) with increasing Alexa647-labeled Bcl-XL (acceptor); fit: one site, specific binding with Hill slope (BimL-dCTS: another model with a constant fixed at 4)"}, "[9]": {"target": "Alexa568-labeled BimL-I132E (mouse (M. musculus))", "experiment": "FRET or BRET; in solution, no membranes; 20 nM Alexa568-labeled BimL protein (donor) with increasing Alexa647-labeled Bcl-XL (acceptor); fit: one site, specific binding with Hill slope (BimL-dCTS: another model with a constant fixed at 4)"}, "[10]": {"target": "Alexa568-labeled BimL-4E (mouse (M. musculus))", "experiment": "FRET or BRET; in solution, no membranes; constant Alexa568-labeled BimL protein (donor; 4 nM by the legend of Figure 3C, 20 nM by that of Figure 6-figure supplement 1) with increasing Alexa647-labeled Bax (acceptor); FRET from the decrease in Alexa568 fluorescence; fit: one site, specific binding with Hill slope"}, "[11]": {"target": "Alexa568-labeled BimL-dCTS (mouse (M. musculus))", "experiment": "FRET or BRET; with mouse liver mitochondria present; 4 nM Alexa568-labeled BimL or BimL-dCTS with increasing Alexa647-labeled Bax; fit in the sheet: Kd fitting advanced (donor fixed at 4)"}, "[12]": {"target": "BimL-dCTS (Alexa568-labeled, recombinant) (murine)", "experiment": "FRET or BRET; with mouse liver mitochondria present (Bak-/-; 0.2 mg/mL in Figure 7—figure supplement 1B); 4 nM Alexa568-labeled BimL protein, Alexa647-labeled Bax or Bcl-XL titrated; apparent Kd"}, "[13]": {"target": "BimL-I125E (Alexa568-labeled, recombinant) (murine)", "experiment": "FRET or BRET; values of Figure 6B (Alexa568-labeled BimL mutant, Alexa647-labeled Bcl-XL); the sentence does not say whether in solution or with liposomes"}, "[14]": {"target": "BimL-dCTS (Alexa568-labeled, recombinant) (murine)", "experiment": "FRET or BRET; in solution, no membranes; constant Alexa568-labeled BimL protein (donor; 4, 10 or 20 nM), Alexa647-labeled Bax or Bcl-XL (acceptor) titrated; FRET from the decrease in Alexa568 fluorescence; Tecan infinite M1000"}, "[15]": {"target": "BimL-dCTS (Alexa568-labeled, recombinant) (murine)", "experiment": "FRET or BRET; with mitochondrial-like liposomes present; constant Alexa568-labeled BimL protein (4 or 20 nM), Alexa647-labeled Bax or Bcl-XL titrated; apparent Kd"}, "[16]": {"target": "Bax (single cysteine 126C, Alexa647-labeled, recombinant) (H. sapiens) (UniProt Q07812)", "sequence (Q07812 whole entry C62A)": "as the sequence (Q07812 other isoform, or with tags, fused parts or gaps mutant) above"}, "[17]": {"target": "Bax (single cysteine 126C, Alexa647-labeled, recombinant) (H. sapiens) (UniProt Q07812)", "remark": "listed apart in the source"}},
  "data": [
    {"substance": "Alexa568-labeled BimL-dCTS (domain or fragment)", "values": [
      {"measurement": "EC50 of Bax (100 nM) activation by BimL-dCTS: ANTS/DPX release from liposomes", "setting": "[1]", "result": 489, "unit": "µM"}
    ]},
    {"substance": "Alexa568-labeled BimL-L129E (natural protein)", "values": [
      {"measurement": "EC50 of Bax (100 nM) activation by BimL-L129E: ANTS/DPX release from liposomes", "setting": "[1]", "result": 2170, "unit": "nM"}
    ]},
    {"substance": "Alexa568-labeled BimL-I132E (natural protein)", "values": [
      {"measurement": "EC50 of Bax (100 nM) activation by BimL-I132E: ANTS/DPX release from liposomes", "setting": "[1]", "result": 2800, "unit": "nM"}
    ]},
    {"substance": "Alexa647-labeled Bcl-XL (single cysteine mutant 152C) (from UniProt Q07817-1 1-233) (natural protein)", "values": [
      {"measurement": "Kd", "setting": "[2]", "result": 8.06, "unit": "nM"},
      {"measurement": "Kd", "setting": "[3]", "result": 10.9, "unit": "nM"},
      {"measurement": "Kd", "setting": "[4]", "result": 17.2, "unit": "nM"},
      {"measurement": "Kd", "setting": "[5]", "result": 9.07, "unit": "nM"},
      {"measurement": "Kd", "setting": "[6]", "result": 11.3, "unit": "nM"},
      {"measurement": "Kd", "setting": "[7]", "result": 8.28, "unit": "nM"},
      {"measurement": "Kd", "setting": "[8]", "result": 70.6, "unit": "µM"},
      {"measurement": "Kd", "setting": "[9]", "result": 9.75, "unit": "nM"}
    ]},
    {"substance": "Alexa647-labeled Bax (single cysteine mutant 126C) (from UniProt Q07812 1-192) (natural protein)", "values": [
      {"measurement": "Kd", "setting": "[10]", "result": 74.9, "unit": "µM"},
      {"measurement": "Kd", "setting": "[11]", "result": 5.75, "unit": "nM"}
    ]},
    {"substance": "Bcl-XL (single cysteine 152C, Alexa647-labeled, recombinant) (from UniProt Q07817-1 1-233) (natural protein)", "values": [
      {"measurement": "Kd", "setting": "[12]", "result": 35, "unit": "nM"},
      {"measurement": "Kd", "setting": "[13]", "result": "< 3", "unit": "nM"},
      {"measurement": "Kd", "setting": "[14]", "result": "< 16", "unit": "nM"},
      {"measurement": "Kd", "setting": "[15]", "result": 35, "unit": "nM"}
    ]},
    {"substance": "BimL (single cysteine Q41C, Alexa568-labeled, recombinant) (natural protein)", "values": [
      {"measurement": "EC50 of Bax-mediated permeabilisation of ANTS/DPX liposomes (100 nM Bax)", "setting": "[16]", "result": 1, "unit": "nM"},
      {"measurement": "ANTS/DPX release after adding increasing Bax to isolated liposomes carrying ~5 nM membrane-bound BimL", "setting": "[17]", "result": 60, "unit": "%"}
    ]},
    {"substance": "Alexa568-labeled BimL-I125E (natural protein)", "values": [
      {"measurement": "EC50 of Bax (100 nM) activation by BimL-I125E: ANTS/DPX release from liposomes", "setting": "[1]", "result": 105, "unit": "nM"}
    ]},
    {"substance": "BimL-I125E (Alexa568-labeled, recombinant) (natural protein)", "values": [
      {"measurement": "EC50 of Bax-mediated permeabilisation of ANTS/DPX liposomes (100 nM Bax)", "setting": "[16]", "result": 100, "unit": "nM"}
    ]},
    {"substance": "Alexa568-labeled BimL (single-cysteine mutant BimL Q41C) (natural protein)", "values": [
      {"measurement": "EC50 of Bax (100 nM) activation by BimL: ANTS/DPX release from liposomes", "setting": "[1]", "result": 0.549, "unit": "nM"}
    ]},
    {"substance": "Alexa568-labeled BimL-V124E (natural protein)", "values": [
      {"measurement": "EC50 of Bax (100 nM) activation by BimL-V124E: ANTS/DPX release from liposomes", "setting": "[1]", "result": 1.21, "unit": "nM"}
    ]}
  ]
}
